Experimental data taken from patent US20200024330A1.

Columns and labels:
Assay in all cases: cell-based or functional assay
[1] = target: HIV-1 Env of isolate 93MW959 (pseudovirus) (HIV-1 isolate 93MW959, subtype C)
[2] = target: HIV-1 Env of isolate MG RM-AG-006 (HIV-1)
[3] = target: HIV-1 MGRM-D-001 envelope glycoprotein (Env) on pseudovirus (HIV-1)
[4] = target: HIV-1 Env of isolate MG RM-AG-008 (HIV-1)
[5] = target: HIV-1 APV13 envelope glycoprotein (Env) on pseudovirus (HIV-1)
[6] = target: HIV-1 Env of isolate MG RM-AG-013 (HIV-1)
[7] = target: HIV-1 MGRM-D-001 Env (on pseudovirus) (HIV-1)
[8] = target: HIV-1 92UG024 Env (on pseudovirus) (HIV-1)
[9] = target: HIV-1 envelope glycoprotein (Env) of isolate MGRM-C-014, on pseudovirus (HIV-1)
[10] = target: aMLV envelope protein (on pseudovirus, negative control) (aMLV)
[11] = target: HIV-1 envelope glycoprotein (Env) of isolate MGRM-C-025, on pseudovirus (HIV-1)
[12] = target: HIV-1 MGRM-AG-005 Env (on pseudovirus) (HIV-1)
[13] = target: HIV-1 APV13 Env (on pseudovirus) (HIV-1)
[14] = target: HIV-1 envelope glycoprotein (Env) of isolate MGRM-C-024, on pseudovirus (HIV-1)
[15] = target: HIV-1 envelope glycoprotein (Env) of isolate MGRM-C-028, on pseudovirus (HIV-1)
[16] = target: HIV-1 92UG005 Env (on pseudovirus) (HIV-1)
[17] = target: HIV-1 MGRM-D-018 Env (on pseudovirus) (HIV-1)
[18] = target: HIV-1 envelope glycoprotein (Env) of isolate MGRM-C-027, on pseudovirus (HIV-1)
[19] = target: HIV-1 NL43 Env (on pseudovirus) (HIV-1)
[20] = target: HIV-1 envelope glycoprotein (Env) of isolate MGRM-C-019, on pseudovirus (HIV-1)
[21] = target: HIV-1 MGRM-C-027 Env (on pseudovirus) (HIV-1)
[22] = target: HIV-1 94UG103 Env (on pseudovirus) (HIV-1)
[23] = target: HIV-1 envelope glycoprotein (Env) of isolate MGRM-C-022, on pseudovirus (HIV-1)
[24] = target: HIV-1 CMU02 Env (on pseudovirus) (HIV-1)
[25] = target: HIV-1 Env of isolate MGRM-D-026 (HIV-1)
[26] = target: HIV-1 Env of isolate MGRM-D-024 (HIV-1)
[27] = target: HIV-1 Env of isolate MGRM-F1-006 (HIV-1)
[28] = target: HIV-1 Env of isolate MGRM-F1-004 (HIV-1)
[29] = target: HIV-1 IAVI-C18 envelope glycoprotein (Env) on pseudovirus (HIV-1)
[30] = target: aMLV envelope protein on pseudovirus (aMLV)
[31] = target: HIV-1 MGRM-F1-013 Env (pseudovirus) (HIV-1)
[32] = target: HIV-1 APV-6 envelope glycoprotein (Env) on pseudovirus (HIV-1)

Sequence of PGT-144 (4970_K22) (antibody) (VH): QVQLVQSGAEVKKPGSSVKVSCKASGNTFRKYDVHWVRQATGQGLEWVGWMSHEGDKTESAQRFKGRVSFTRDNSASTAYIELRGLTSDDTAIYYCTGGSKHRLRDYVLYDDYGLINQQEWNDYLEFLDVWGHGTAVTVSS
Sequence of PGT-144 (4970_K22) (antibody) (VL): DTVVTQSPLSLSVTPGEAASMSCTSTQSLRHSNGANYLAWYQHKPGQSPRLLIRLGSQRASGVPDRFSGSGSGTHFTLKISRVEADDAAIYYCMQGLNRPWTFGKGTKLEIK
Sequence of PGT-143 (4980_N08) (antibody) (VH): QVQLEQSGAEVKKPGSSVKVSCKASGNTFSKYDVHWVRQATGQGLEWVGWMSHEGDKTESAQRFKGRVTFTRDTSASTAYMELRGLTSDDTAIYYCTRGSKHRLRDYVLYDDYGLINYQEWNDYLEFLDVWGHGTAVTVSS
Sequence of PGT-143 (4980_N08) (antibody) (VL): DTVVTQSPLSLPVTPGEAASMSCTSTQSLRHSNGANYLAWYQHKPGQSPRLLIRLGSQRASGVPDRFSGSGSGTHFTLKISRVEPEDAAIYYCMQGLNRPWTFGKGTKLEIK
Sequence of PGT-141 (4964_G22; 4993_K13) (antibody) (VH): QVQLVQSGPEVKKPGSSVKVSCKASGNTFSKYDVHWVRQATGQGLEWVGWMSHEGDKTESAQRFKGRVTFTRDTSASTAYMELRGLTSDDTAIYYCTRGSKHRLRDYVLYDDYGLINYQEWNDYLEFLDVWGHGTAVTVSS
Sequence of PGT-141 (4964_G22; 4993_K13) (antibody) (VL): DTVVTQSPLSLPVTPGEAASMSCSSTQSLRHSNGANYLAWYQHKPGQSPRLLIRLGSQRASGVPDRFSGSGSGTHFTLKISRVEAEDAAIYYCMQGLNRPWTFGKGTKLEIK
Sequence of PGT-142 (4995_E20) (antibody) (VH): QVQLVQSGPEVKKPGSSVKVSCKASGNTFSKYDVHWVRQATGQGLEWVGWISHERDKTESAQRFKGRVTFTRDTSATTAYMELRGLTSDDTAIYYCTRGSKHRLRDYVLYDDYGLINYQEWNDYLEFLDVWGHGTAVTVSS

Row | Substance | IC50 (ug/ml), pseudovirus neutralization [7] [µg/mL] | IC50 (ug/ml), pseudovirus neutralization [8] [µg/mL] | IC50, pseudovirus neutralization [9] [µg/mL] | IC50 (ug/ml), pseudovirus neutralization [10] [µg/mL] | IC50, pseudovirus neutralization [11] [µg/mL] | IC50 (ug/ml), pseudovirus neutralization [12] [µg/mL] | IC50 (ug/ml), pseudovirus neutralization [13] [µg/mL] | IC50, pseudovirus neutralization [14] [µg/mL] | IC50, pseudovirus neutralization [15] [µg/mL] | IC50 (ug/ml), pseudovirus neutralization [16] [µg/mL] | IC50 (ug/ml), pseudovirus neutralization [17] [µg/mL] | IC50, pseudovirus neutralization [18] [µg/mL] | IC50 (ug/ml), pseudovirus neutralization [19] [µg/mL] | IC50, pseudovirus neutralization [20] [µg/mL] | IC50 (ug/ml), pseudovirus neutralization [21] [µg/mL] | IC50 (ug/ml), pseudovirus neutralization [22] [µg/mL] | IC50, pseudovirus neutralization [23] [µg/mL] | IC50 (ug/ml), pseudovirus neutralization [24] [µg/mL] | other results
1 | 5141_B17 (PGT-126) (antibody) |  |  |  |  |  |  |  |  |  |  |  |  |  |  |  |  |  |  | IC50 (µg/mL) neutralization [1]: 9.44 µg/mL; neutralization IC50 [2]: 0.01 µg/mL; IC50 (ug/ml), neutralizing activity [3]: 0.0639 µg/mL; neutralization IC50 [4]: > 50 µg/mL; IC50 (ug/ml), neutralizing activity [5]: 0.012 µg/mL; neutralization IC50 [6]: 0.008 µg/mL
2 | 5145_B14 (PGT-127) (antibody) |  |  |  |  |  |  |  |  |  |  |  |  |  |  |  |  |  |  | IC50 (µg/mL) neutralization [1]: 6.95 µg/mL; neutralization IC50 [2]: 0.021 µg/mL; neutralization IC50 [4]: > 50 µg/mL; neutralization IC50 [6]: 0.018 µg/mL
3 | 5147_N06 (PGT-130) (antibody) |  |  |  |  |  |  |  |  |  |  |  |  |  |  |  |  |  |  | IC50 (ug/ml), neutralizing activity [3]: > 10 µg/mL; IC50 (ug/ml), neutralizing activity [5]: 0.0345 µg/mL
4 | PGT-141 (4964_G22; 4993_K13) (antibody) | > 10 | > 10 | 11.8 | > 10 | 0.247 | 0.392 | > 10 | 0.101 | 13.8 | > 10 | > 10 | 3.27 | 0.856 | 0.008 | 0.822 | > 10 | 0.381 | > 10 | 
5 | PGT-142 (4995_E20) (antibody) | > 10 | > 10 | 6.02 | > 10 | 0.183 | 0.22 | > 10 | 0.03 | 2.12 | > 10 | > 10 | 0.792 | 0.712 | 0.003 | 0.272 | > 10 | 0.086 | > 10 | 
6 | PGT-143 (4980_N08) (antibody) | > 10 | > 10 | 8.81 | > 10 | 0.336 | 0.244 | > 10 | 0.05 | 12.4 | > 10 | > 10 | 0.598 | 0.585 | 0.004 | 0.505 | > 10 | 0.103 | > 10 | 
7 | PGT-144 (4970_K22) (antibody) | > 10 | > 10 | > 50 | > 10 | 17.6 | > 10 | > 10 | 2.06 | > 50 | > 10 | > 10 | > 50 | > 10 | 0.513 | > 10 | > 10 | 2.58 | > 10 | 
8 | VRC01 (antibody) |  |  | > 50 |  | 2.36 |  |  | 3.4 | 0.319 |  |  | 0.125 |  | 1.13 |  |  | 13 |  | IC50, pseudovirus neutralization [25]: 0.435 µg/mL; IC50, pseudovirus neutralization [26]: 0.366 µg/mL; IC50, pseudovirus neutralization [27]: 2.86 µg/mL; IC50, pseudovirus neutralization [28]: 0.305 µg/mL
9 | b12 (antibody) |  |  |  |  |  |  |  |  |  |  |  |  |  |  |  |  |  |  | IC90 (pseudovirus neutralization) [29]: > 50 µg/mL; IC90 (pseudovirus neutralization) [30]: > 50 µg/mL; IC50 (µg/ml), pseudovirus neutralization [31]: > 50 µg/mL; IC90 (pseudovirus neutralization) [32]: > 50 µg/mL
